Experimental data as given in PMC12012533, “Structural basis for immune cell binding of Fusobacterium nucleatum via the trimeric autotransporter adhesin CbpF” (Proceedings of the National Academy of Sciences of the …, 2025).
“And” between values parts separate entries of the source, which are not always exact repeats. Identical values can stand only once.

B1: CEACAM1 extracellular domain (residues 35–428), C-terminal hexahistidine tag (domain or fragment, human, UniProt P13688 35-428, looked up)
chain: QLTTESMPFNVAEGKEVLLLVHNLPQQLFGYSWYKGERVDGNRQIVGYAIGTQQATPGPANSGRETIYPNASLLIQNVTQNDTGFYTLQVIKSDLVNEEATGQFHVYPELPKPSISSNNSNPVEDKDAVAFTCEPETQDTTYLWWINNQSLPVSPRLQLSNGNRTLTLLSVTRNDTGPYECEIQNPVSANRSDPVTLNVTYGPDTPTISPSDTYYRPGANLSLSCYAASNPPAQYSWLINGTFQQSTQELFIPNITVNNSGSYTCHANNSVTGCNRTTVKTIIVTELSPVVAKPQIKASKTTVTGDKDSVNLTCSTNDTGISIRWFFKNQSLPSSERMKLSQGNTTLSINPVKREDAGTYWCEVFNPISKNQSDPIMLNVNYNALPQENGLSPG
modifications: glycosylated (N-acetylglucosamines modelled on the IgV-like and IgC2-like A1 domains)
notes: human carcinoembryonic antigen-related cell adhesion molecule 1 (CEACAM1), extracellular domain, residues 35-428 of UniProt P13688; also called CEACAM1/ECD; CEACAM1-ECD; source: bought: ACRO Biosystems (Cat. No. CE1-H5220), produced in HEK293 cells; not shown: His6, C-terminal, kept
B2: CEACAM binding protein of Fusobacterium (CbpF) from F. nucleatum ATCC25586, wild type, detergent-solubilised (natural protein)
chain: SAAPVIKAGTATDSTEAGVDNVANGVKSSAFGYDNKAIEKESSAFGTGNRATGEFSSAFGFHNIASKIHSSAFGSNNAADGVNSSAFGFKNTVSGFNSSAFGSQYQVTGNFSGAFGMGEFNGQYQYKNEGNNSYMIGNKNKIASGSDDNFILGNNVHIGGGINNSVALGNNSTVSASNTVSVGSSTLKRKIVNVGDGAISANSSDAVTGRQLYSGNGIDTAAWQNKLNVTRKNDYKDANDIDVNKWKAKLGVGSGGGGGAPVDAYTKSEADNKFANKTDLNDYTKKDDYKDANGIDVDKWKAKLGTGAGTADIENLRNEVNEKIDDVKDEVRTVGSLSAALAGLHPMQYDPKAPVQVMAALGHYRDKQSVAVGASYYFNDRFMMSTGIALSGEKRTKTMANVGFTLKLGKGSGVTYDETPQYVVQNEVKRLTVENQELKERVRNLEEKLNMLLKNK
notes: Cloned in pASK-IBA2C behind an N-terminal E. coli OmpA signal peptide; Homotrimer; also called CbpF WT; CbpF wt; source: E. coli BL21 C43, extracted from membranes with lauroylsarcosine, purified (StrepTactin, SEC)
B3: CEACAM binding protein of Fusobacterium (CbpF), F. nucleatum ATCC25586, wild type (natural protein)
chain: SAAPVIKAGTATDSTEAGVDNVANGVKSSAFGYDNKAIEKESSAFGTGNRATGEFSSAFGFHNIASKIHSSAFGSNNAADGVNSSAFGFKNTVSGFNSSAFGSQYQVTGNFSGAFGMGEFNGQYQYKNEGNNSYMIGNKNKIASGSDDNFILGNNVHIGGGINNSVALGNNSTVSASNTVSVGSSTLKRKIVNVGDGAISANSSDAVTGRQLYSGNGIDTAAWQNKLNVTRKNDYKDANDIDVNKWKAKLGVGSGGGGGAPVDAYTKSEADNKFANKTDLNDYTKKDDYKDANGIDVDKWKAKLGTGAGTADIENLRNEVNEKIDDVKDEVRTVGSLSAALAGLHPMQYDPKAPVQVMAALGHYRDKQSVAVGASYYFNDRFMMSTGIALSGEKRTKTMANVGFTLKLGKGSGVTYDETPQYVVQNEVKRLTVENQELKERVRNLEEKLNMLLKNK
modifications: AlexaFluor 647 NHS-ester conjugate (cell binding and competition assays only)
notes: CbpF (FN1499) of Fusobacterium nucleatum ATCC25586, codon-optimized gene; mature protein after signal peptide cleavage, residues S24-K479; numbers count on the precursor with its own signal peptide; Cloned in frame with an N-terminal E. coli OmpA signal peptide (export signal; In detergent for SPR and the SEC test, in DMPC/MSP1D1 nanodiscs for cryo-EM and the cell assays; also called CbpF wt; …)

Key:
[1] = biological target: B3; assay: competition of cell binding (confocal fluorescence microscopy); labelled CbpF nanodiscs preincubated with 1 or 2 µM purified CEACAM1-ECD for 30 min at 25 °C before incubation with cells; details: both partners purified
[2] = biological target: B3; assay: SPR; Biacore T200; CEACAM1-ECD-His6 captured on an anti-His antibody on a CM5 chip (~35 RU); CbpF injected, 11.5 to 1,480 nM (WT) or 15.6 to 1,000 nM (WT and variants); 25 mM MOPS-NaOH, 150 mM NaCl, 1 % P8POE, pH 7.0, 25 °C; global fit with a 1:1 Langmuir or a heterogeneous ligand model; details: both partners purified
[3] = biological target: B3; assay: SPR; same sensorgrams as a4, steady-state signals of the binding curves evaluated; details: both partners purified
[4] = biological target: the molecule itself; assay: SDS-PAGE (SDS- and heat-resistant oligomer); elution fractions of membrane-extracted CbpF from StrepTactin resin; monomer at 50 kDa, trimer at 150 kDa
[5] = biological target: T1, CEACAM1-eGFP fusion protein on transfected HEK293T cells (human, UniProt P13688 35-526); assay: confocal fluorescence microscopy of labelled protein on cells; 1 µM AlexaFluor 647-labelled CbpF nanodiscs on HEK293T cells transfected with CEACAM1-GFP, 2 h at 37 °C, compared with empty nanodiscs; integrated fluorescence colocalizing with GFP or with the membrane stain; details: one partner purified
T1 construct: human CEACAM1 expressed from pcDNA3.1 as a GFP fusion; also called GFP-tagged CEACAM1; CEACAM1-GFP; source: HEK293T, transfected (pcDNA3.1, CMV promotor), on cells
T1 sequence (looked up): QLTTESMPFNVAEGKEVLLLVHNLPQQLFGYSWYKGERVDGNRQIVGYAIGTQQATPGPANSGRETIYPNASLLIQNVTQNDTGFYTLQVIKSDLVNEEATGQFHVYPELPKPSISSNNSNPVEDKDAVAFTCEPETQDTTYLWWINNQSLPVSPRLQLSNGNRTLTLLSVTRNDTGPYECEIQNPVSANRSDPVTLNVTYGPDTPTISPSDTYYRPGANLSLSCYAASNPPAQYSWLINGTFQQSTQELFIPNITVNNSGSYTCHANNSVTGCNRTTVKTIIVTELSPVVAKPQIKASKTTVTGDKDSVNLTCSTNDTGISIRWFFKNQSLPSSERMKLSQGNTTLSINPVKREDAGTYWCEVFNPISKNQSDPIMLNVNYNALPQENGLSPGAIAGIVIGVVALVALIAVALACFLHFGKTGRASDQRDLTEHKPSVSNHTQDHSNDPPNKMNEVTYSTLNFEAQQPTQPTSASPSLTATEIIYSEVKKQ

[6] = biological target: the molecule itself; assay: SDS-PAGE (SDS- and heat-resistant oligomer); purified CbpF, in detergent and after reconstitution in DMPC/MSP1D1 nanodiscs; band above 150 kDa
[7] = biological target: B1; assay: cryo-EM structure; 4.6 µM nanodisc-embedded CbpF (trimer) incubated with 14 µM CEACAM1/ECD for 60 min at 23 °C, excess CEACAM1 removed by SEC; single particle analysis, C3 symmetry; details: both partners purified
[8] = biological target: B2; assay: SPR; CEACAM1-ECD-His6 captured (about 35 RU) on anti-His antibody on a CM5 chip, Biacore T200; CbpF injected at 11.5-1480 nM (WT) or 15.6-1000 nM (WT and variants); 25 mM MOPS-NaOH, 150 mM NaCl, 1 % P8POE, pH 7.0, 25 °C; 240 s association, 600 s dissociation; 1:1 Langmuir global fit; details: both partners purified

Binder: B1
- fold decrease of the CbpF signal on cells after preincubation [1]: ~11 fold
- Kd [2]: 6.2 nM
- koff [2]: 0.00051 s⁻¹
- kon [2]: 81300 M⁻¹ s⁻¹
- Kd [3]: 75 ± 14 nM

Binder: B2
- stoichiometry N [4]: 3

Binder: B3
- fold increase of the mean fluorescence signal over empty nanodiscs (colocalizing with cells) [5]: 9.3 fold
- fold increase of the mean fluorescence signal over nanodiscs without CbpF (colocalizing with CEACAM1-GFP) [5]: ~460 fold
- stoichiometry N [6]: 3
- stoichiometry N [7]: 1 CEACAM1 per CbpF protomer

B4: CEACAM1 extracellular domain (residues 35-428), C-terminal hexahistidine tag (domain or fragment, human, UniProt P13688 35-428, looked up)
chain: QLTTESMPFNVAEGKEVLLLVHNLPQQLFGYSWYKGERVDGNRQIVGYAIGTQQATPGPANSGRETIYPNASLLIQNVTQNDTGFYTLQVIKSDLVNEEATGQFHVYPELPKPSISSNNSNPVEDKDAVAFTCEPETQDTTYLWWINNQSLPVSPRLQLSNGNRTLTLLSVTRNDTGPYECEIQNPVSANRSDPVTLNVTYGPDTPTISPSDTYYRPGANLSLSCYAASNPPAQYSWLINGTFQQSTQELFIPNITVNNSGSYTCHANNSVTGCNRTTVKTIIVTELSPVVAKPQIKASKTTVTGDKDSVNLTCSTNDTGISIRWFFKNQSLPSSERMKLSQGNTTLSINPVKREDAGTYWCEVFNPISKNQSDPIMLNVNYNALPQENGLSPG
modifications: glycosylated
notes: carcinoembryonic antigen-related cell adhesion molecule 1 (CEACAM1), human, extracellular domain, residues 35-428; also called CEACAM1-ECD; CEACAM1/ECD; source: bought: ACRO Biosystems, Cat. No. CE1-H5220, produced in HEK293 cells; not shown: His6, C-terminal, kept
- Kd [8]: 6.16 nM and 6.29 nM
- koff [8]: 0.000501 s⁻¹ and 0.000844 s⁻¹
- kon [8]: 134000 M⁻¹ s⁻¹
